Source: article PMC9053816, “A polypeptide model for toxic aberrant proteins induced by aminoglycoside antibiotics” (PLoS ONE, 2022)
*: point of attachment. FITC = O=C1OC2(c3ccc(O)cc3Oc3cc(O)ccc32)c2ccc(NC(=S)*)cc21

Target: T1, 6His-DnaK (E. coli DnaK protein) (E. coli, UniProt P0A6Y8 1-638)
T1 construct: molecular chaperone DnaK of E. coli, from the ASKA expression clone; The functional rows concern endogenous DnaK in E. coli BL21 cells; source: purified from the ASKA expression clone by chromatography on Ni-NTA agarose
Assay: MST; 20 nM fluorescein-labelled peptide incubated with varying concentrations of DnaK; 50 mM Tris pH 7.4, 150 mM NaCl, 10 mM MgCl2, 0.05% Tween-20, 0.05% BSA; 1 h at 20°C; Monolith NT.115; three independent trials
Conditions: both partners purified

T1 sequence (P0A6Y8 whole entry): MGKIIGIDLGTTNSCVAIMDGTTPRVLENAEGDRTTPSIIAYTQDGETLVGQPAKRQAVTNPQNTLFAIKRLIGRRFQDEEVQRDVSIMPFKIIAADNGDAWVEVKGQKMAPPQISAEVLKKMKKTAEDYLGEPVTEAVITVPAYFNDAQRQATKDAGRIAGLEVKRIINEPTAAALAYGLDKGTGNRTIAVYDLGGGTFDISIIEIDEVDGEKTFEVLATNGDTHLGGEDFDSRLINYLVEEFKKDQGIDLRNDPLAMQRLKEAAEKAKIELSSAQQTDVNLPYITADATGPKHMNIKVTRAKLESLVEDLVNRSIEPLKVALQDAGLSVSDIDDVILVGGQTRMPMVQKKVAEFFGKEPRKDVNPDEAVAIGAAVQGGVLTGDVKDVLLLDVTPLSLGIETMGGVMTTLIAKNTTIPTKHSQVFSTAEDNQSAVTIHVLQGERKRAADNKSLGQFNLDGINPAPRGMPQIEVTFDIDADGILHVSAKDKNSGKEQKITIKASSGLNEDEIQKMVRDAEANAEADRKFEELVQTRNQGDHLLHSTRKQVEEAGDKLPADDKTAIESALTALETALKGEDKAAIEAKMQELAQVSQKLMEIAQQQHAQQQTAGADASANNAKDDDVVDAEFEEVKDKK

B1: NR peptide, FITC-TEKANRLLLTGKTEQ (canonical DnaK peptide substrate NRLLLTG with flanking extensions) (peptide)
peptide: {FITC}-TEKANRLLLTGKTEQ-NH2
notes: canonical DnaK peptide substrate NRLLLTG flanked by the N-terminal extension TEKA and the C-terminal extension KTEQ; source: synthetic peptide (Peptide 2.0, Inc.)
B1: binds.

B2: KL peptide, FITC-TEKAKLVIKLLALGKTEQ (KL decapeptide of ARF48 with flanking extensions) (peptide)
peptide: {FITC}-TEKAKLVIKLLALGKTEQ-NH2
notes: ARF48 is encoded by a +1 alternate reading frame of an Arabidopsis thaliana cDNA and is not a natural protein; The core decapeptide comes from an aberrant alternate-frame polypeptide, not from a natural protein; also called synthetic KL decapeptide; source: synthetic peptide (Peptide 2.0, Inc.)
B2: binds.
